Article PMC6547412

Experiments:
eIF4G-MC (eIF4G) = biological target: T1, eIF4G-MC (eIF4G) (yeast, UniProt P39935 572-952); test: EMSA
T1 sequence: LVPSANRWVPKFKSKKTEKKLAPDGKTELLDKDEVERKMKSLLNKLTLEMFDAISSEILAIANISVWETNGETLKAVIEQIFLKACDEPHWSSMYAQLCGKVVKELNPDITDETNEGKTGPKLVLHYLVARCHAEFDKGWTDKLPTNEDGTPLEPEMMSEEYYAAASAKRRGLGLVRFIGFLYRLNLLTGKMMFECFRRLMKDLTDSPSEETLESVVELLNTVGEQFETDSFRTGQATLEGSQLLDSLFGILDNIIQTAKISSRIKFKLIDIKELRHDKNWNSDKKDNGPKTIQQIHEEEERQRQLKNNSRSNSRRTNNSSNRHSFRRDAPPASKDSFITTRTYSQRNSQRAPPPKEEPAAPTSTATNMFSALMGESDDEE

eIF4A;eIF4G-MC (eIF4G) = biological target: T2, eIF4A;eIF4G-MC (eIF4G) (yeast;yeast, UniProt P10081;P39935 1-395;572-952, |); test: EMSA
T2 sequence 1: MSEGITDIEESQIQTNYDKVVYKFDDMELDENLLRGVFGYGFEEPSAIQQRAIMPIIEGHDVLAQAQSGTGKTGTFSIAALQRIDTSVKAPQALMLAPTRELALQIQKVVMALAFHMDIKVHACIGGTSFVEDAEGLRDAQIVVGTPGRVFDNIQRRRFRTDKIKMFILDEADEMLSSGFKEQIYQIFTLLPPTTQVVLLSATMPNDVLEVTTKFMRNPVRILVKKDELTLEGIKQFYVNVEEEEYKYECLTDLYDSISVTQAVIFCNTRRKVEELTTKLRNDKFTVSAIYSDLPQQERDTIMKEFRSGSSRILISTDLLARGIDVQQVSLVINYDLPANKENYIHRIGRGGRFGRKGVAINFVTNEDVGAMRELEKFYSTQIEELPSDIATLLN
T2 sequence 2: T1 sequence

[1] = biological target: T3, eIF4A;eIF4B;eIF4G-MC (eIF4G) (yeast;yeast;yeast, UniProt P10081;P34167;P39935 1-395;1-436;572-952, ||); test: fluorescence anisotropy
T3 sequence 1: T2 sequence 1
T3 sequence 2: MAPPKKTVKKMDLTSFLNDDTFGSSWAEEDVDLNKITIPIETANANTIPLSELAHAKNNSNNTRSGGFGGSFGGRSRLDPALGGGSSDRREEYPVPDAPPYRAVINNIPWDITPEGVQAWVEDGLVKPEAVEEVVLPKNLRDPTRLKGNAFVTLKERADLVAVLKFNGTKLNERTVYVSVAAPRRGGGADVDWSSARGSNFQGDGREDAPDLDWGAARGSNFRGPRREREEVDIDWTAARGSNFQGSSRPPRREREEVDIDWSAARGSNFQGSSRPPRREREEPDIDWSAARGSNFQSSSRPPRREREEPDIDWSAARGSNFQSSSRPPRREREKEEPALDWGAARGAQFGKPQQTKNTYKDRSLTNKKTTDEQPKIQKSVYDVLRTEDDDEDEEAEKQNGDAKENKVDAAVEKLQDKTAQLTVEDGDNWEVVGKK
T3 sequence 3: T1 sequence

eIF4B = biological target: T4, eIF4B (yeast, UniProt P34167 1-436); test: EMSA
T4 sequence: T3 sequence 2

B1: 20/10mer RNA (dsRNA)
RNA 1: ACUAGCACCGUAAAGCACGC
RNA 2: GCUUUACGGU
B1 was tested, and the binding result (eIF4G-MC (eIF4G)) was “no binding”, the binding result (eIF4A;eIF4G-MC (eIF4G)) was “binds” and the Kd [1] was 3500 ± 500 nM.

B2: 30/10mer RNA (dsRNA)
RNA 1: GGGGAGAAAAACUAGCACCGUAAAGCACGC
RNA 2: GCUUUACGGU
For B2, the Kd [1] was 1200 ± 300 nM and the binding result (eIF4B) was “binds”.
